# Test results published in US20160185837A1 (AstraZeneca / MedImmune, published 2016).
# T1: rat GLP-1 receptor (rat, UniProt P32301 22-463)
# T1 sequence (looked up): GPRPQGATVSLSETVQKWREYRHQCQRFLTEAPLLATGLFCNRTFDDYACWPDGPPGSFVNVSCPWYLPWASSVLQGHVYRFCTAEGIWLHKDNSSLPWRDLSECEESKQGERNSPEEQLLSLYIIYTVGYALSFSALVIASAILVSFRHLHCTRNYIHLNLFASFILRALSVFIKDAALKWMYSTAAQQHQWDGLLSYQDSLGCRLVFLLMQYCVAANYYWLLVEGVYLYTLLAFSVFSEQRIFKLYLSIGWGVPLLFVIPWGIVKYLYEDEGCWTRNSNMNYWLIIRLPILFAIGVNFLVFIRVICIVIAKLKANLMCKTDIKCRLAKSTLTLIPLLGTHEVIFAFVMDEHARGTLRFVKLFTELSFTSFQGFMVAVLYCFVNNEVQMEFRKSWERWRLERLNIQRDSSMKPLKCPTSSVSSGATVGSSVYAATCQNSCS
# T2: rat GIP receptor (rat, UniProt P43219 19-455)
# T2 sequence (looked up): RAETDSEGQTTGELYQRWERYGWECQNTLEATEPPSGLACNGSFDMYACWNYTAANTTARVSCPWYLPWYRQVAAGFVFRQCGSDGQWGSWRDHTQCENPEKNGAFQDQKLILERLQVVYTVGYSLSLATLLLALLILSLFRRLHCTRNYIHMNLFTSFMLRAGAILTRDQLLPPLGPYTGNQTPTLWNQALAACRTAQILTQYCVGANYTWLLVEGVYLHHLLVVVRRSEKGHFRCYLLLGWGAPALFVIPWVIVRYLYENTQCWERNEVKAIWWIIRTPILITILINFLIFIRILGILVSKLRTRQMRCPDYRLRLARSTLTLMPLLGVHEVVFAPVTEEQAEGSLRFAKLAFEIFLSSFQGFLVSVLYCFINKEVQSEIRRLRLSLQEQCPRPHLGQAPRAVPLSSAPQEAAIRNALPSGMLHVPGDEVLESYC
# T3: mouse GIP receptor (mouse, UniProt Q0P543 19-460)
# T3 sequence (looked up): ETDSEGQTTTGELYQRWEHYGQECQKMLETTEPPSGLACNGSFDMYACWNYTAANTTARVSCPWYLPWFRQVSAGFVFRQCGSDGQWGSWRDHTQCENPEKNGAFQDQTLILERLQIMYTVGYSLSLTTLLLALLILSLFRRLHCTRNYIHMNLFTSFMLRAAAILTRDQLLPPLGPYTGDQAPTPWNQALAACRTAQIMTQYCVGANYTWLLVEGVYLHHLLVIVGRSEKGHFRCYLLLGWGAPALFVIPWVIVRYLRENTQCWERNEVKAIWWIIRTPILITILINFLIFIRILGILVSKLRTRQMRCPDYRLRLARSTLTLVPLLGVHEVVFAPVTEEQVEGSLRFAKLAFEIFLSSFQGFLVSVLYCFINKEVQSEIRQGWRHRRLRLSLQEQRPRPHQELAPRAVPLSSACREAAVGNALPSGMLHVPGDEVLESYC
# T4: human GIP receptor (human, UniProt P48546 22-466)
# T4 sequence (looked up): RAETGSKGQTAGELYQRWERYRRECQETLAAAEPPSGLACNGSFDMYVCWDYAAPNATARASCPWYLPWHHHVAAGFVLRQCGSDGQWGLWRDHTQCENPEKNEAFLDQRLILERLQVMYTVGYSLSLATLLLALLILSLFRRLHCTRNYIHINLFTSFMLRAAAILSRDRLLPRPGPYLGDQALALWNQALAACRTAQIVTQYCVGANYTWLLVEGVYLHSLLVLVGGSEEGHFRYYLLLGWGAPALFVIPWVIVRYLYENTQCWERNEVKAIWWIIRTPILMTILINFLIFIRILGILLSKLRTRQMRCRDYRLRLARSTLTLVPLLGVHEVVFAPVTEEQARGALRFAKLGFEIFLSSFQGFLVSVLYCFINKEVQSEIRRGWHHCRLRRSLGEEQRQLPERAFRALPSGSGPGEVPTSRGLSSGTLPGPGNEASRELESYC
# T5: mouse GLP-1 receptor (mouse, UniProt O35659 22-463)
# T5 sequence (looked up): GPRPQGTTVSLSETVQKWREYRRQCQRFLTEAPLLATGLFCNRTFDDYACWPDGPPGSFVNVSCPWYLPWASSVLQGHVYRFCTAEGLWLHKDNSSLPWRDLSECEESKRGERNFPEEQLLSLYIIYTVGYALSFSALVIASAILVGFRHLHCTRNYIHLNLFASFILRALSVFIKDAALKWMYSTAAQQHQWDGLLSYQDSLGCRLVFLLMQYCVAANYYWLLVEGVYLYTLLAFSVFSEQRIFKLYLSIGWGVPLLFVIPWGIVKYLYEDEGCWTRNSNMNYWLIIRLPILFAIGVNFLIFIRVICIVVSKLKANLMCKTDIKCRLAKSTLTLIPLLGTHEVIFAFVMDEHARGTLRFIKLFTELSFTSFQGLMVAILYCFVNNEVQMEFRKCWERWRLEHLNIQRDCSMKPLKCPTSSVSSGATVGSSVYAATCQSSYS
# B1: IP403 (Fc fusion)
# chain: YSEGTHTSDLRILLEEEAVRLFIEKLLAGGGSGGGGSGGGGSGGGGSGGGGSGGGGSGGGGSGGGGSACPPC
# B2: IP371 (Fc fusion)
# chain: YSEGMHTSDLSKLLEEEAVRLFIEWLLAGGGGGGGSGGGGSGGGGSGGGGSACPPC
# B3: IP372 (Fc fusion)
# chain: YSEGTFTSDYSIYLDEEAVRLFIEWLLAGGGGGGGSGGGGSGGGGSGGGGSACPPC
# B4: IP298 (Fc fusion)
# chain: YSEGTFTSDVSSYLERQAIDEFIAWLLKGGAAAGGSGSTASSGSGSATGGGGAATHTCPPC
# B5: IP317 (Fc fusion)
# chain: YSEGTFTSDVSSYLEKQAIDEFIAWLLKGGAAAGGSGSTASSGSGSATGGGGAATHTCPPC
# B6: IP304 (Fc fusion)
# chain: YSEGTFTSDVSSYLERQAIEEFIAWLLKGGAAAGGSGSTASSGSGSATGGGGAATHTCPPC
# B7: IP361 (Fc fusion)
# chain: YSEGTFTSDYRILKEEEAVRLFIEWLLAGGGGGGSGGGGSGGGGSGGGGSATHTCPPC
# B8: IP384 (Fc fusion)
# chain: YSEGTFTSDYSKLLEEEAVRLFIEWLLKGGGGGGSGGGGSGGGGSGGGGSATHTCPPC
# B9: IP374 (Fc fusion)
# chain: YSEGTFTSLYSKLLEEEAVRLFIEWLLAGGGGGGSGGGGSGGGGSGGGGSATHTCPPC
# B10: IP363 (Fc fusion)
# chain: YSEGTFTSDYRMLKEEEAVRLFIEWLLAGGGGGGSGGGGSGGGGSGGGGSATHTCPPC
# B11: IP362 (Fc fusion)
# chain: YSEGTFTSDYMMLKEEEAVRLFIEWLLAGGGGGGSGGGGSGGGGSGGGGSATHTCPPC
# B12: IP379 (Fc fusion)
# chain: YSEGTHTSDFSKLLEEEAVRLFIEWLLAGGGGGGSGGGGSGGGGSGGGGSATHTCPPC
# B13: IP400 (Fc fusion)
# chain: YSEGTHTSDLSKLLEEEAVRLFIEWLLAGGGGGGSGGGGSGGGGSGGGGSATHTCPPC
# B14: IP370 (Fc fusion)
# chain: YSEGTFTSLYSKLKEEEAVRLFIEWLLAGGGGGGSGGGGSGGGGSGGGGSATHTCPPC
# B15: IP382 (Fc fusion)
# chain: YSEGTFTSLYSKLLEEEAVRLFIEYLLAGGGGGGSGGGGSGGGGSGGGGSATHTCPPC
# B16: IP390 (Fc fusion)
# chain: YSEGTFTSDYSKLLEEEAVRLFIEWLVKGPGGGGGSGGGGSGGGGSGGGGSGGGGSACPPC
# Tests used:
# Experiment in all cases: cell-based or functional assay
# [1] = molecular target: human glucagon receptor (human, UniProt P47871 26-477)
# [2] = molecular target: human GLP-1 receptor (human, UniProt P43220 24-463)
# [3] = molecular target: T1, rat GLP-1 receptor
# [4] = molecular target: T2, rat GIP receptor
# [5] = molecular target: T3, mouse GIP receptor
# [6] = molecular target: T4, human GIP receptor
# [7] = molecular target: T5, mouse GLP-1 receptor
Binder,cAMP EC50 [1] [nM],cAMP EC50 [2] [nM],cAMP EC50 [3] [nM],cAMP EC50 [4] [nM],cAMP EC50 [5] [nM],cAMP EC50 [6] [nM],cAMP EC50 [7] [nM]
B1,960,960,73,0.02,21,16,> 1740
B2,> 6560,0.48,1.1,0.21,280,0.011,8.5
B3,> 3880,0.71,2.9,27,450,0.05,33
B4,> 13100,0.18,0.015,7.5,80,0.14,0.36
B5,> 5550,0.13,0.012,5.3,86,0.11,0.33
B6,2600,0.16,0.024,4.6,16,0.1,0.69
B7,> 6200,3.4,18,0.038,0.19,0.082,170
B8,26,0.091,0.024,0.043,4.1,0.0062,0.99
B9,> 2090,1.4,0.89,0.41,1.9,0.2,19
B10,560,0.98,1.4,0.045,0.31,0.056,11
B11,> 4960,1.7,1.1,0.083,1.1,0.061,11
B12,> 13200,0.84,1.5,0.41,150,0.0038,44
B13,1300,0.29,0.19,0.087,380,0.002,31
B14,> 9490,0.62,0.35,0.13,0.48,0.19,13
B15,120,1.5,0.68,0.92,6.5,0.19,16
B16,> 218,0.13,0.024,0.23,3.6,0.0088,2
